Patent publication US20150337051A1 (MORPHOTEK, published 2015)

Columns and labels:
[1] = molecular target: T1, recombinant CHO TEM-1 Fc fusion protein (UniProt Q9HCU0); assay: ECL sandwich, competition: biotin-9G5 capture, sulfo-TAG-15F8 detection; MORAb-004 spike 3.125 µg/mL, TEM-1-Fc QC 2 ng/mL; recovery at 0 µg/mL MORAb-004: 106
T1 sequence (looked up): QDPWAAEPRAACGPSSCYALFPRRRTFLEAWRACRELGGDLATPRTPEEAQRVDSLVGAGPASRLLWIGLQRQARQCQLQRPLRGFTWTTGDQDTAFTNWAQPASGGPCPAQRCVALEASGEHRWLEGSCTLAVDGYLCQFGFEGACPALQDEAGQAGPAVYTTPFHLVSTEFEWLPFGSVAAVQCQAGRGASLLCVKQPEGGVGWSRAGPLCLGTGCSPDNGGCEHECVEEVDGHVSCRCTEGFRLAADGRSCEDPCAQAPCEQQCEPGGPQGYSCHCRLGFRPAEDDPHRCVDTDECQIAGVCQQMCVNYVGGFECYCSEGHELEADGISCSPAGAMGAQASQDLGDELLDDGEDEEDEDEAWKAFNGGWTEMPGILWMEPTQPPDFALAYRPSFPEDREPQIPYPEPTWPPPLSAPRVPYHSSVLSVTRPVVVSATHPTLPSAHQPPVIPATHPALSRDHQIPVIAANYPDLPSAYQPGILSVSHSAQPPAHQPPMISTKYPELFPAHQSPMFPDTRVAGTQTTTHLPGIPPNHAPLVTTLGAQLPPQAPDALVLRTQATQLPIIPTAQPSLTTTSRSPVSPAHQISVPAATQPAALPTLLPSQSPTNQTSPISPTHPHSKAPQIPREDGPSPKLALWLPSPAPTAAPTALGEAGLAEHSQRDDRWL

[2] = molecular target: T1, recombinant CHO TEM-1 Fc fusion protein; assay: ECL sandwich, competition: biotin-9G5 capture, sulfo-TAG-15F8 detection; MORAb-004 spike 50 µg/mL, TEM-1-Fc QC 0.08 ng/mL; recovery at 0 µg/mL MORAb-004: 114
[3] = molecular target: T1, recombinant CHO TEM-1 Fc fusion protein; assay: ECL sandwich, competition: biotin-9G5 capture, sulfo-TAG-15F8 detection; MORAb-004 spike 1.5625 µg/mL, TEM-1-Fc QC 0.4 ng/mL; recovery at 0 µg/mL MORAb-004: 109
[4] = molecular target: T1, recombinant CHO TEM-1 Fc fusion protein; assay: ECL sandwich, competition: biotin-9G5 capture, sulfo-TAG-15F8 detection; MORAb-004 spike 50 µg/mL, TEM-1-Fc QC 0.4 ng/mL; recovery at 0 µg/mL MORAb-004: 109
[5] = molecular target: T1, recombinant CHO TEM-1 Fc fusion protein; assay: ECL sandwich, competition: biotin-9G5 capture, sulfo-TAG-15F8 detection; MORAb-004 spike 25 µg/mL, TEM-1-Fc QC 10 ng/mL; recovery at 0 µg/mL MORAb-004: 105
[6] = molecular target: T1, recombinant CHO TEM-1 Fc fusion protein; assay: ECL sandwich, competition: biotin-9G5 capture, sulfo-TAG-15F8 detection; MORAb-004 spike 0.78125 µg/mL, TEM-1-Fc QC 0.4 ng/mL; recovery at 0 µg/mL MORAb-004: 109
[7] = molecular target: T1, recombinant CHO TEM-1 Fc fusion protein; assay: ECL sandwich, competition: biotin-9G5 capture, sulfo-TAG-15F8 detection; MORAb-004 spike 50 µg/mL, TEM-1-Fc QC 10 ng/mL; recovery at 0 µg/mL MORAb-004: 105
[8] = molecular target: T1, recombinant CHO TEM-1 Fc fusion protein; assay: ECL sandwich, competition: biotin-9G5 capture, sulfo-TAG-15F8 detection; MORAb-004 spike 1.5625 µg/mL, TEM-1-Fc QC 50 ng/mL; recovery at 0 µg/mL MORAb-004: 104
[9] = molecular target: T1, recombinant CHO TEM-1 Fc fusion protein; assay: ECL sandwich, competition: biotin-9G5 capture, sulfo-TAG-15F8 detection; MORAb-004 spike 3.125 µg/mL, TEM-1-Fc QC 50 ng/mL; recovery at 0 µg/mL MORAb-004: 104
[10] = molecular target: T1, recombinant CHO TEM-1 Fc fusion protein; assay: ECL sandwich, competition: biotin-9G5 capture, sulfo-TAG-15F8 detection; MORAb-004 spike 12.5 µg/mL, TEM-1-Fc QC 10 ng/mL; recovery at 0 µg/mL MORAb-004: 105
[11] = molecular target: T1, recombinant CHO TEM-1 Fc fusion protein; assay: ECL sandwich, competition: biotin-9G5 capture, sulfo-TAG-15F8 detection; MORAb-004 spike 6.25 µg/mL, TEM-1-Fc QC 0.4 ng/mL; recovery at 0 µg/mL MORAb-004: 109
[12] = molecular target: T1, recombinant CHO TEM-1 Fc fusion protein; assay: ECL sandwich, competition: biotin-9G5 capture, sulfo-TAG-15F8 detection; MORAb-004 spike 1.5625 µg/mL, TEM-1-Fc QC 2 ng/mL; recovery at 0 µg/mL MORAb-004: 106
[13] = molecular target: T1, recombinant CHO TEM-1 Fc fusion protein; assay: ECL sandwich, competition: biotin-9G5 capture, sulfo-TAG-15F8 detection; MORAb-004 spike 0.78125 µg/mL, TEM-1-Fc QC 0.08 ng/mL; recovery at 0 µg/mL MORAb-004: 114
[14] = molecular target: T1, recombinant CHO TEM-1 Fc fusion protein; assay: ECL sandwich, competition: biotin-9G5 capture, sulfo-TAG-15F8 detection; MORAb-004 spike 25 µg/mL, TEM-1-Fc QC 0.4 ng/mL; recovery at 0 µg/mL MORAb-004: 109
[15] = molecular target: T1, recombinant CHO TEM-1 Fc fusion protein; assay: ECL sandwich, competition: biotin-9G5 capture, sulfo-TAG-15F8 detection; MORAb-004 spike 3.125 µg/mL, TEM-1-Fc QC 0.4 ng/mL; recovery at 0 µg/mL MORAb-004: 109

% Recovery of TEM-1 QCs spiked with MORAb-004 [1]: 96%
% Recovery of TEM-1 QCs spiked with MORAb-004 [2]: 94.1%
% Recovery of TEM-1 QCs spiked with MORAb-004 [3]: 102%
% Recovery of TEM-1 QCs spiked with MORAb-004 [4]: 91.9%
% Recovery of TEM-1 QCs spiked with MORAb-004 [5]: 91.3%
% Recovery of TEM-1 QCs spiked with MORAb-004 [6]: 105%
% Recovery of TEM-1 QCs spiked with MORAb-004 [7]: 87%
% Recovery of TEM-1 QCs spiked with MORAb-004 [8]: 98.9%
% Recovery of TEM-1 QCs spiked with MORAb-004 [9]: 94.5%
% Recovery of TEM-1 QCs spiked with MORAb-004 [10]: 91.2%
% Recovery of TEM-1 QCs spiked with MORAb-004 [11]: 98%
% Recovery of TEM-1 QCs spiked with MORAb-004 [12]: 98.9%
% Recovery of TEM-1 QCs spiked with MORAb-004 [13]: 107%
% Recovery of TEM-1 QCs spiked with MORAb-004 [14]: 96.5%
% Recovery of TEM-1 QCs spiked with MORAb-004 [15]: 101%
B1: MORAb-004 (antibody, INN chains, looked up, V domains shown)
VH: QVQLQESGPGLVRPSQTLSLTCTASGYTFTDYVIHWVKQPPGRGLEWIGYINPYDDDTTYNQKFKGRVTMLVDTSSNTAYLRLSSVTAEDTAVYYCARRGNSYDGYFDYSMDYWGSGTPVTVSS
VL: DIQMTQSPSSLSASVGDRVTITCRASQNVGTAVAWLQQTPGKAPKLLIYSASNRYTGVPSRFSGSGSGTDYTFTISSLQPEDIATYYCQQYTNYPMYTFGQGTKVQIK
